The source of these data is patent US20240294914A1, “COMPOSITIONS AND METHODS FOR TREATING HEPATITIS B VIRUS INFECTION” (priority 2021, published 2024).

B1: cas12b-100: guide RNA SEQ ID NO: 385 (nucleic acid)
guide: mG*mU*mU*rCrUrGrUrCrUrUrUrUrGrGrUrCrArGrGrArCrArArCrCrGrUrCrUrArGrCrUrArUrArArGrUrGrCrUrGrCrArGrGrGrUrGrUrGrArGrArArArCrUrCrCrUrArUrUrGrCrUrGrGrArCrGrArUrGrUrCrUrCrUrUrArCrGrArGrGrCrArUrUrArGrCrArCrUrUrCrUrUrCrUrArGrGrGrGrArCrCrUrGrCrCrU
B2: cas12b-122b: guide RNA SEQ ID NO: 391 (nucleic acid)
guide: GTTCTGTCTTTTGGTCAGGACAACCGTCTAGCTATAAGTGCTGCAGGGTGTGAGAAACTCCTATTGCTGGACGATGTCTCTTACGAGGCATTAGCACCACGCACGCGCTGATGGCCC
modifications: sugars from the 5' end m3 r114, linkages s3 o113 (s phosphorothioate, o phosphodiester), T or U not given here
B3: cas12b-124: guide RNA SEQ ID NO: 389 (nucleic acid)
guide: mG*mU*mU*rCrUrGrUrCrUrUrUrUrGrGrUrCrArGrGrArCrArArCrCrGrUrCrUrArGrCrUrArUrArArGrUrGrCrUrGrCrArGrGrGrUrGrUrGrArGrArArArCrUrCrCrUrArUrUrGrCrUrGrGrArCrGrArUrGrUrCrUrCrUrUrArCrGrArGrGrCrArUrUrArGrCrArCrCrCrGrGrGrCrArArCrGrGrGrGrUrArArArGrGrU
B4: cas12b-35: guide RNA SEQ ID NO: 388 (nucleic acid)
guide: mG*mU*mU*rCrUrGrUrCrUrUrUrUrGrGrUrCrArGrGrArCrArArCrCrGrUrCrUrArGrCrUrArUrArArGrUrGrCrUrGrCrArGrGrGrUrGrUrGrArGrArArArCrUrCrCrUrArUrUrGrCrUrGrGrArCrGrArUrGrUrCrUrCrUrUrArCrGrArGrGrCrArUrUrArGrCrArCrCrCrCrArArGrGrUrCrUrUrArCrArUrArArGrArG
B5: cas12b-17: guide RNA SEQ ID NO: 382 (nucleic acid)
guide: mG*mU*mU*rCrUrGrUrCrUrUrUrUrGrGrUrCrArGrGrArCrArArCrCrGrUrCrUrArGrCrUrArUrArArGrUrGrCrUrGrCrArGrGrGrUrGrUrGrArGrArArArCrUrCrCrUrArUrUrGrCrUrGrGrArCrGrArUrGrUrCrUrCrUrUrArCrGrArGrGrCrArUrUrArGrCrArCrGrGrGrGrCrCrArArGrUrCrUrGrUrArCrArGrCrA
B6: cas12b-30: guide RNA SEQ ID NO: 383 (nucleic acid)
guide: mG*mU*mU*rCrUrGrUrCrUrUrUrUrGrGrUrCrArGrGrArCrArArCrCrGrUrCrUrArGrCrUrArUrArArGrUrGrCrUrGrCrArGrGrGrUrGrUrGrArGrArArArCrUrCrCrUrArUrUrGrCrUrGrGrArCrGrArUrGrUrCrUrCrUrUrArCrGrArGrGrCrArUrUrArGrCrArCrGrCrUrGrArCrGrCrArArCrCrCrCrCrArCrUrGrG
B7: cas12b-154: guide RNA SEQ ID NO: 387 (nucleic acid)
guide: mG*mU*mU*rCrUrGrUrCrUrUrUrUrGrGrUrCrArGrGrArCrArArCrCrGrUrCrUrArGrCrUrArUrArArGrUrGrCrUrGrCrArGrGrGrUrGrUrGrArGrArArArCrUrCrCrUrArUrUrGrCrUrGrGrArCrGrArUrGrUrCrUrCrUrUrArCrGrArGrGrCrArUrUrArGrCrArCrUrUrGrUrCrArArCrArArGrArArArArArCrCrCrC
B8: cas12b-147: guide RNA SEQ ID NO: 386 (nucleic acid)
guide: mG*mU*mU*rCrUrGrUrCrUrUrUrUrGrGrUrCrArGrGrArCrArArCrCrGrUrCrUrArGrCrUrArUrArArGrUrGrCrUrGrCrArGrGrGrUrGrUrGrArGrArArArCrUrCrCrUrArUrUrGrCrUrGrGrArCrGrArUrGrUrCrUrCrUrUrArCrGrArGrGrCrArUrUrArGrCrArCrGrArGrGrArCrArArArCrGrGrGrCrArArCrArUrA
B9: cas12b-42: guide RNA SEQ ID NO: 384 (nucleic acid)
guide: mG*mU*mU*rCrUrGrUrCrUrUrUrUrGrGrUrCrArGrGrArCrArArCrCrGrUrCrUrArGrCrUrArUrArArGrUrGrCrUrGrCrArGrGrGrUrGrUrGrArGrArArArCrUrCrCrUrArUrUrGrCrUrGrGrArCrGrArUrGrUrCrUrCrUrUrArCrGrArGrGrCrArUrUrArGrCrArCrGrGrArGrCrUrArCrUrGrUrGrGrArGrUrUrArCrU
B10: cas12b-127: guide RNA SEQ ID NO: 390 (nucleic acid)
guide: mG*mU*mU*rCrUrGrUrCrUrUrUrUrGrGrUrCrArGrGrArCrArArCrCrGrUrCrUrArGrCrUrArUrArArGrUrGrCrUrGrCrArGrGrGrUrGrUrGrArGrArArArCrUrCrCrUrArUrUrGrCrUrGrGrArCrGrArUrGrUrCrUrCrUrUrArCrGrArGrGrCrArUrUrArGrCrArCrArCrArCrArGrArArArGrGrCrCrUrUrGrUrArArG
B11: G-200: guide RNA SEQ ID NO: 5498 (nucleic acid)
guide: GUGAAAAAGUUGCAUGGUGCGUUUUAGAGCUAGAAAUAGCAAGUUAAAAUAAGGCUAGUCCGUUAUCAACUUGAAAAAGUGGCACCGAGUCGGUGCUUUU
modifications: sugars from the 5' end m3 r93 m3 r1, linkages s3 o93 s3 (s phosphorothioate, o phosphodiester), T or U not given here
B12: G-553: guide RNA SEQ ID NO: 5506 (nucleic acid)
guide: GGGCAACGGGGUAAAGGUUCGUUUUAGAGCUAGAAAUAGCAAGUUAAAAUAAGGCUAGUCCGUUAUCAACUUGAAAAAGUGGCACCGAGUCGGUGCUUUU
modifications: sugars from the 5' end m3 r93 m3 r1, linkages s3 o93 s3 (s phosphorothioate, o phosphodiester), T or U not given here
B13: G-845: guide RNA SEQ ID NO: 5508 (nucleic acid)
guide: UUUGAAGUAUGCCUCAAGGUGUUUUAGAGCUAGAAAUAGCAAGUUAAAAUAAGGCUAGUCCGUUAUCAACUUGAAAAAGUGGCACCGAGUCGGUGCUUUU
modifications: sugars from the 5' end m3 r93 m3 r1, linkages s3 o93 s3 (s phosphorothioate, o phosphodiester), T or U not given here
B14: G-251: guide RNA SEQ ID NO: 5504 (nucleic acid)
guide: CAGGUAUUGUUUACACAGAAGUUUUAGAGCUAGAAAUAGCAAGUUAAAAUAAGGCUAGUCCGUUAUCAACUUGAAAAAGUGGCACCGAGUCGGUGCUUUU
modifications: sugars from the 5' end m3 r93 m3 r1, linkages s3 o93 s3 (s phosphorothioate, o phosphodiester), T or U not given here
B15: G-159: guide RNA SEQ ID NO: 5488 (nucleic acid)
guide: GCAAACACUUGGCACAGACCGUUUUAGAGCUAGAAAUAGCAAGUUAAAAUAAGGCUAGUCCGUUAUCAACUUGAAAAAGUGGCACCGAGUCGGUGCUUUU
modifications: sugars from the 5' end m3 r93 m3 r1, linkages s3 o93 s3 (s phosphorothioate, o phosphodiester), T or U not given here
B16: G-772: guide RNA SEQ ID NO: 5501 (nucleic acid)
guide: UGGCGAUUGGUGGAGGCAGGGUUUUAGAGCUAGAAAUAGCAAGUUAAAAUAAGGCUAGUCCGUUAUCAACUUGAAAAAGUGGCACCGAGUCGGUGCUUUU
modifications: sugars from the 5' end m3 r93 m3 r1, linkages s3 o93 s3 (s phosphorothioate, o phosphodiester), T or U not given here
B17: G-474: guide RNA SEQ ID NO: 5509 (nucleic acid)
guide: GAUUAAAGGUCUUUGUACUAGUUUUAGAGCUAGAAAUAGCAAGUUAAAAUAAGGCUAGUCCGUUAUCAACUUGAAAAAGUGGCACCGAGUCGGUGCUUUU
modifications: sugars from the 5' end m3 r93 m3 r1, linkages s3 o93 s3 (s phosphorothioate, o phosphodiester), T or U not given here

Strand notation (5' to 3'): a small letter for the sugar, then the base; units joined by * are phosphorothioate-linked, units joined directly phosphodiester-linked; [ ] holds rarer units or linkages, { } end groups; capitals alone tell only the bases. m = 2'-O-methyl; r = 2'-OH (RNA)

The first data set deals with HBV genome in HEK293T cells transduced with a lentiviral vector. Description: Base editing efficiency in Hek293-lentiHBV system (PCR amplicons sequenced on MiSeq). The format is cell-based, Hepatitis B virus. Also noted: Editing Efficiency 2 (%): concentration or dose not given beside the values. The note with it: average of 3, base editor Cas12b-ABE, plasmid transfection, four days.
As for B1, the “Average Editing Efficiency (%)” value came out at 5.18%.
Regarding B2, the “Average Editing Efficiency (%)” value is recorded as 5.51%.
The same measure, in the same setting: for B3 the value was 17.47%.
The same measure, in the same setting: the value for B4 was 0.35%.
Same read-out and setting: the value for B5 was 35.07%.
Regarding B6, the “Average Editing Efficiency (%)” value is on record as 0.02%.
Still for that read-out and setting: the value for B7 was 27.74%; that for B8 was 10.83%.
The same measure, in the same setting: the value for B9 was 28.99%; that for B10 was 42.25%.

The data set is the same for the next values; noted with them: base editor ABE8.8-m.
With B11, the “% Editing average” value turned out to be 59%.
Consider B12, for which the “% Editing average” value is listed as 64%.

Staying with this data set, now noted: base editor Abe7.10.
In the case of B13, the “% Editing average” value turned out to be 70%.
The same measure, in the same setting: for B14 the value was 77%; for B15, 51%.
Still for that read-out and setting: the value for B16 was 66%.

The data set is the same for the next values; noted with them: base editor VRQR-ABE.
B17: the “% Editing average” value is given as 74%.

The data set is the same for the next values; noted with them: replicate 1, base editor Cas12b-ABE, plasmid transfection, four days.
With B1, the “Editing Efficiency 1 (%)” value was 7.97%.
On the same count and under the same terms, the value for B2 was 8.22%.
Still for that read-out and setting: the value for B3 was 29.50%; that for B4 was 0.31%.
For B5, the “Editing Efficiency 1 (%)” value was 26.42%.
The same measure, in the same setting: the value for B6 was 0.02%; that for B7 was 16.12%; that for B8 was 13.02%.
As for B9, the “Editing Efficiency 1 (%)” value came to 29.48%.
On the same count and under the same terms, for B10 the value was 50.16%.

Still in this data set, the particulars now being: replicate 2, base editor Cas12b-ABE, plasmid transfection, four days.
Regarding B1, the “Editing Efficiency 2 (%)” value is recorded as 4.21%.
With B2, the “Editing Efficiency 2 (%)” value is given as 3.91%.
Still for that read-out and setting: for B3 the value was 11.78%; for B4, 0.04%.
For the molecule B5, the “Editing Efficiency 2 (%)” value worked out at 34.50%.
The same measure, in the same setting: for B6 the value was 0.02%; for B7, 30.06%; for B8, 4.44%.
As for B9, the “Editing Efficiency 2 (%)” value turned out to be 23.94%.
Still for that read-out and setting: for B10 the value was 37.40%.

The same data set, now with this note: replicate 3, base editor Cas12b-ABE, plasmid transfection, four days.
With B1, the “Editing Efficiency 3 (%)” value amounted to 3.35%.
Take B2: the “Editing Efficiency 3 (%)” value is given as 4.39%.
On the same count and under the same terms, for B3 the value was 11.15%; for B4, 0.70%.
Same read-out and setting: the value for B5 was 44.29%; that for B6 was 0.01%; that for B7 was 37.02%.
Take B8: the “Editing Efficiency 3 (%)” value turned out to be 15.03%.
With B9, the “Editing Efficiency 3 (%)” value came to 33.54%.
Same read-out and setting: for B10 the value was 39.21%.
